Results published in publication PMC12710314.

System: T1, LigR (Novosphingobium aromaticivorans DSM 12444), ORF:c1f1f590
T1 sequence: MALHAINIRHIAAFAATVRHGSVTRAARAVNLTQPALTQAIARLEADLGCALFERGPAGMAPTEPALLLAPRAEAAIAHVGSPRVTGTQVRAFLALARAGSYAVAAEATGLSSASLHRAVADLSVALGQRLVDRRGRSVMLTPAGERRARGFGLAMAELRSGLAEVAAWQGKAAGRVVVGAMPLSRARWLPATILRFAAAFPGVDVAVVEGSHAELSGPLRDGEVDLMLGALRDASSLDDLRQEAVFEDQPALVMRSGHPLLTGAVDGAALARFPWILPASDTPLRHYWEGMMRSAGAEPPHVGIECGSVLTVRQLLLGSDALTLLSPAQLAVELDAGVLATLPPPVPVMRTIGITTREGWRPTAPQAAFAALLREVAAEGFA
Test: EMSA
Settings: EMSA: 20 nM DNA, 50 mM Tris-HCl, 20 mM HEPES, 1 mM EDTA, 1 mM DTT, 100 mM NaCl, 10% glycerol, pH not stated, room temperature 30 min, gel at 4 C; DNase I …

| Sequence | binding |
| --- | --- |
| CAAAGGTCGACCCGGCCTCACCGAAGCCGATCAGGGCGATTGTGAACTCAGGAACGCTCTCCATGGCAGCGGTCCTGCGTCGGCCGCGCCAAAGGAACAAATGCAAACATCGCCCAAGGTATAAATTTATGCAAAGCCTTCTGCGGCCACTTCGCGCAGGAGGGCCGCGAAGGCCGCCTGCGGCGCGGTCGGCCGCCAAC (double strand) [SARO_RS14280 promoter EMSA fragment] | binds |
| CGATCTGAAGTGCTCAACGTGCAAAGCCTGCACAAAATGACAGGTCGTGCCGGCATCTCAATCGCCTGTTGCTTCCCCTTCTGCTGATTGCTATAAATCATAACAGATTGGGAGAGAGTCATGCAGTTTGAACGCATCAATCCGATGACCGGCGCCGTCGCCTCGCAGGCAGAGGCCATGAAAGCGTCGGACATTCCTTC (double strand) [ligV upstream EMSA fragment] | no binding |
| ATGCCCAGGCCGATGCCGCTGGCGCCGCCCGTCACGAAAGCCGTCTTGCCCGGCAGATTCTGCATCGATCCTCTCCTTTGGTGCCTTGCCGGCAGCCATCGACCGGCGCCGGGAATCATTTTTCGCCTTTTGTATTCACCAGCGAGGAATTGTATGCAAGACTAACAATATTGCTGCTTCGACAAGGCCCGCCGAAATGGGTCGCCGCAGCGGGA (double strand) [ligN upstream EMSA fragment] | no binding |
| GCCTTCTGCTTCTCGCGCCACTCGTCGTGCGCCTTCGGCAGCACGGTGTAGTGACCGTGGCAGTCGATGATCATGGTCATGCGACTTCAGTCCTCTCAAGTTTGAACTCTATGGTCTTGCCCGCCTGCTCGCGCTGGCGCCTCACCGTCCCGCCGGTCATCACCGGCTCGACGCCCAGCGATTCCAGCGTCTTGGCTGAC (double strand) [ligJ upstream EMSA fragment] | no binding |
| GGACGACGATACCCGACATTTCCGGCTCCCGATGAAAGATCTTCGCGCGTTCCATGGAACTGCGGACCGCAGGGAACCAATGCATTGTTTGCCCCGGCCCATAAGGAAATGCTAAGTGATCAGGCATGGCCCTGCACGCGATCAACATCAGGCACATCGCCGCCTTCGCCGCAACGGTGCGCCACGGCAGCGTGACGCGG (double strand) [ligK promoter EMSA fragment] | binds |
